Experimental data from IntAct's records for PubMed 19196961.

B1: E3 ubiquitin-protein ligase CHIP (Homo sapiens), Q9UNE7-1 (parent)
chain: MKGKEEKEGGARLGAGGGSPEKSPSAQELKEQGNRLFVGRKYPEAAACYGRAITRNPLVAVYYTNRALCYLKMQQHEQALADCRRALELDGQSVKAHFFLGQCQLEMESYDEAIANLQRAYSLAKEQRLNFGDDIPSALRIAKKKRWNSIEERRIHQESELHSYLSRLIAAERERELEECQRNHEGDEDDSHVRAQQACIEAKHDKYMADMDELFSQVDEKRKKRDIPDYLCGKISFELMREPCITPSGITYDRKDIEEHLQRVGHFDPVTRSPLTQEQLIPNLAMKEVIDAFISENGWVEDY

Variants of: B1
Conditions: with lrrk2_human LRRK2, Q5S007
Sequence of lrrk2_human LRRK2, Q5S007 (Q5S007 whole entry): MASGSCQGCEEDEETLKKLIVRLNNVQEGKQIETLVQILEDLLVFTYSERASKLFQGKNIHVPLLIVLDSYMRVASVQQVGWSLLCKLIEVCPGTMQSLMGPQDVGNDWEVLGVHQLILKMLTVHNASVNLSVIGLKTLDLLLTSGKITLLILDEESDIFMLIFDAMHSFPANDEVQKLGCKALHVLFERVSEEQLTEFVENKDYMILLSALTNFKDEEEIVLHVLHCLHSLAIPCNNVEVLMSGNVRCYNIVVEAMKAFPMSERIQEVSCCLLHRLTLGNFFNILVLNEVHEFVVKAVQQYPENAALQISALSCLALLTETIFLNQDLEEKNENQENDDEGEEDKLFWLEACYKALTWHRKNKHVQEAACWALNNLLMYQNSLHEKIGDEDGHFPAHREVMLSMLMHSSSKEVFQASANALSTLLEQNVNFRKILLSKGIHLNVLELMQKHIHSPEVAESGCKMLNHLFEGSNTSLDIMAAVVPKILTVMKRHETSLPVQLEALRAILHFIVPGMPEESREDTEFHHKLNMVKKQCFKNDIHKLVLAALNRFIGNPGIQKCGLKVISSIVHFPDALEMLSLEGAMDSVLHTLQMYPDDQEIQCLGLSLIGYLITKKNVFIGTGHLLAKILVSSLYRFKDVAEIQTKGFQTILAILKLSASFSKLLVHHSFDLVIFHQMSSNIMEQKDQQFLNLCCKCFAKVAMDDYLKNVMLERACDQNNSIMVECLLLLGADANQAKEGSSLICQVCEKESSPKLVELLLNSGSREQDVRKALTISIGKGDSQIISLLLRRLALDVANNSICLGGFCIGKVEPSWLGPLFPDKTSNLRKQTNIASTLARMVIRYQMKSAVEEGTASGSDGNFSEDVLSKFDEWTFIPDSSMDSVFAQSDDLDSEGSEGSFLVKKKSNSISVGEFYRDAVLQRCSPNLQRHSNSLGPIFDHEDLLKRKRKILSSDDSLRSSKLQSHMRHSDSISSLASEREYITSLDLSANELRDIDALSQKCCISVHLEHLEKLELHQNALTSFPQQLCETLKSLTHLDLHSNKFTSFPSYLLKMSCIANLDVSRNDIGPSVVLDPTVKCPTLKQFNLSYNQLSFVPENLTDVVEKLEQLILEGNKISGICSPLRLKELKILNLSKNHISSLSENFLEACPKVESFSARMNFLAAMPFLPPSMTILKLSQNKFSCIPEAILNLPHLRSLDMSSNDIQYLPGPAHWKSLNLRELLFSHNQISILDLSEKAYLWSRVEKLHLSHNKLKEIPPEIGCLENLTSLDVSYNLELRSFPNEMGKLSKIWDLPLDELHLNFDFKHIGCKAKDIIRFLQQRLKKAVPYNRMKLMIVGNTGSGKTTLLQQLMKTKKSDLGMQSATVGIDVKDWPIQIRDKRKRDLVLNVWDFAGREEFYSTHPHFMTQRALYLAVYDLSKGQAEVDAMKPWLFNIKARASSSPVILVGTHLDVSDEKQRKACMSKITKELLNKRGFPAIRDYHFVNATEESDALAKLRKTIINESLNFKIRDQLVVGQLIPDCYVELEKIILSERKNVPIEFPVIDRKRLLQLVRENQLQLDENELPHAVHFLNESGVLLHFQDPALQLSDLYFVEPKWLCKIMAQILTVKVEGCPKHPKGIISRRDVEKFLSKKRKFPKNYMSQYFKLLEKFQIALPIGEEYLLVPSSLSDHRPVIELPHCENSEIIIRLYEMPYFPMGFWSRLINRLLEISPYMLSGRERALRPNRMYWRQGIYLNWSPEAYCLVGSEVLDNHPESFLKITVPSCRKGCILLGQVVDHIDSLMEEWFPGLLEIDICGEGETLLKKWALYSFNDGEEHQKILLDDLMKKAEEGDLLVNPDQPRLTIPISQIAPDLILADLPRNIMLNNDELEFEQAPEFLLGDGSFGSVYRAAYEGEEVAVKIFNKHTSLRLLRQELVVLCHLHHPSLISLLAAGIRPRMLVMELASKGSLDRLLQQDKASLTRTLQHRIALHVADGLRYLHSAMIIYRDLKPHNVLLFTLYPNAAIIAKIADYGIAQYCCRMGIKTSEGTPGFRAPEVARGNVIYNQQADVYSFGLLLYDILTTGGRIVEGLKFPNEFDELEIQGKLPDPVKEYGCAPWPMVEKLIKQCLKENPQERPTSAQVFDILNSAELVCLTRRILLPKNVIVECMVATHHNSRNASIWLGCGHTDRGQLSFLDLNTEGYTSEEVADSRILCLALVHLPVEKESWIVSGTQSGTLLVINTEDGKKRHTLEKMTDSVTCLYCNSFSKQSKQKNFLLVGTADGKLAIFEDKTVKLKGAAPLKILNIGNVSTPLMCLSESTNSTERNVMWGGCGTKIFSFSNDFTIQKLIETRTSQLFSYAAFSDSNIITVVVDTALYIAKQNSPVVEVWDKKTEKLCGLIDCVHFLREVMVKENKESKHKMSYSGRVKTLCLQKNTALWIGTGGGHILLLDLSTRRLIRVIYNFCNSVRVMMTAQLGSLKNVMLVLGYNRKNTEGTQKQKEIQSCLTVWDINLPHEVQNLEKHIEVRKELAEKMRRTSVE

effect of a mutation on the interaction	Variant
disrupting interaction	K30C
